Test results taken from patent publication US20260055188A1 (SHENGHE CHINA BIOPHARMACEUTICAL, published 2026).
Read-outs that look alike come from different tables or passages of the source.

T1: Human-B7H3 His (manufacturer: Acro, CAT: TB73-H52E2) (human, UniProt Q5ZPR3-2 29-245)
T1 construct: also called human B7H3 protein; B7H3 protein; not shown: His tag
T1 sequence (looked up): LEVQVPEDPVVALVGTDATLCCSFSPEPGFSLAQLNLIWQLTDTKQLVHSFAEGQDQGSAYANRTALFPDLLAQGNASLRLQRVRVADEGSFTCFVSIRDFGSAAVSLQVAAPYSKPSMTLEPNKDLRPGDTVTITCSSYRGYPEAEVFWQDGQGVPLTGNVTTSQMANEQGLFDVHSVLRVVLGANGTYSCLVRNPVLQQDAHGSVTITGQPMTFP

T2: Human-TNFR2-His (manufacturer: SINO, CAT: 10417-H08H) (human, UniProt P20333 23-257)
T2 construct: Bought protein; also called human TNFR2 protein; TNFR2 protein; not shown: His tag
T2 sequence (looked up): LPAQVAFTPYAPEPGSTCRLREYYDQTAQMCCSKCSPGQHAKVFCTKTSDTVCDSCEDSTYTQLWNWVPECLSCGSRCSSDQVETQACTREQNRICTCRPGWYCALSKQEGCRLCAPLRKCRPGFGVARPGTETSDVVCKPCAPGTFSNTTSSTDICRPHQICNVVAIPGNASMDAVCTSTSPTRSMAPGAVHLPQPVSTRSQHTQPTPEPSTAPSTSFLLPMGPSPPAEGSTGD


Experiments:
[1] = target: T1, Human-B7H3 His (manufacturer: Acro, …); test: ELISA: Human-B7H3 His coated (0.3 µg/mL), antibody titrated, goat anti-human IgG Fc detection, OD450 (Example 3)
Method: (§1) Human-B7H3 His (manufacturer: Acro, CAT: TB73-H52E2, LOT: 2052-21AXF1-YS) was diluted to 0.3 μg/mL with a coating solution (1×PBS, pH7.4), and coated into a 96-well ELISA plate at 100 μL/well overnight at 4° C. The coating solution was poured off. Each well was washed with 1×PBST at 300 μL, washed 4 times with a plate washer, and patted dry on a flat paper. It was blocked with 3% skim milk powder at 300 μL/well, and incubated at 37° C. for 1 h. The blocking solution was poured off, washed 4 times with a plate washer, and patted dry on a flat paper. Negative control and positive control were set up. […] The variable region of the antibody sequence of the positive control consists of SEQ ID NO: 1 and SEQ ID NO: 5, with the constant region of human IgG1 added (SEQ ID NO: 85 and SEQ ID NO: 86). The positive control and antibody were diluted to 10 μg/mL with 3% skim milk powder as the starting concentration, and then diluted by 3-fold gradient (11 gradients in total). A blank well was set up and only the diluent was added. It was incubated at 37° C. for 1 h at 100 μL/well. The liquid in the well was discarded, washed 4 times with a plate washer, and patted dry on a flat paper. Goat anti-human IgG Fc was diluted with 3% skim milk powder at 1:20000, and incubated at 37° C. for 1 h at 100 μL/well. It was washed 6 times with a plate washer, and patted dry on a flat paper. TMB color developing solution was added at 100 μL/well, and wrapped with aluminum foil. Color development was performed at 37° C. in the dark for 8 min. Termination solution 1M HCl was added to terminate the color development reaction at 100 μL/well. Readings were taken at 450 nm on an ELISA reader.

[2] = target: T2, Human-TNFR2-His (manufacturer: SINO, …); test: bridging ELISA: Human-B7H3 Fc coated (0.5 µg/mL), antibody titrated, then Human-TNFR2-His (0.5 µg/mL), HRP-labeled anti-His detection, OD450 (Example 4); the signal needs both proteins bound at once
Method: Human-B7H3 Fc (manufacturer: Acro, CAT: B73-H5253, LOT: 2053b-201XF1-UD) was diluted to 0.5 μg/mL with a coating solution (1×PBS, pH7.4) and coated into a 96-well ELISA plate at 100 μL/well at 4° C. overnight. The coating solution was poured off. Each well was washed with 1×PBST at 300 μL, washed 4 times with a plate washer, and patted dry on a flat paper. It was blocked with 3% skim milk powder at 300 μL/well, and incubated at 37° C. for 1 h. The blocking solution was poured off, washed 4 times with a plate washer, and patted dry on a flat paper. […] Starting at 300 nM, which was used as the initial concentration for 3-fold dilution, a total of 8 gradients were diluted, and a blank well was set up, and only diluent was added. It was incubated at 37° C. for 1 h at 100 μL/well. The liquid in the well was discarded, washed 4 times with a plate washer, and patted dry on a flat paper. Human-TNFR2-His (manufacturer: Sino, CAT: 10417-H08H, LOT: LC12SE2902) was diluted to 0.5 μg/mL, 100 μL was added to each well, and incubated at room temperature for 1 h. The plate was washed 3 times with PBST, and then the HRP-labeled his antibody was diluted with sample diluent at 1:10000, 100 μL was added to each well, and incubated at room temperature for 1 h. It was washed 6 times with a plate washer, and patted dry on a flat paper. TMB color developing solution was added at 100 μL/well, and wrapped with aluminum foil. Color development was performed at 37° C. in the dark for 8 min. Termination solution 1M HCl was added to terminate the color development reaction at 100 μL/well. Readings were taken at 450 nm on an ELISA reader.

[3] = target: T1, Human-B7H3 His (manufacturer: Acro, …); test: ELISA: Human-B7H3 His coated (0.3 µg/mL), antibody titrated, goat anti-human IgG Fc detection, OD450 (Example 3); remark: listed apart in the source
Method: as §1

[4] = target: T2, Human-TNFR2-His (manufacturer: SINO, …); test: ELISA: Human-TNFR2-His coated (0.3 µg/mL), antibody titrated, goat anti-human IgG Fc detection, OD450 (Example 2)
Method: Human-TNFR2-His (manufacturer: SINO, CAT: 10417-H08H, LOT: LC15NO0412) was diluted to 0.3 μg/mL with a coating solution (1×PBS, pH7.4), and coated into a 96-well ELISA plate at 100 μL/well overnight at 4° C. The coating solution was poured off. Each well was washed with 1×PBST at 300 μL, washed 4 times with a plate washer, and patted dry on a flat paper. It was blocked with 3% skim milk powder at 300 μL/well, and incubated at 37° C. for 1 h. The blocking solution was poured off, washed 4 times with a plate washer, and patted dry on a flat paper. Negative control and positive control were set up. […] The positive control and antibody were diluted to 10 μg/mL with 3% skim milk powder as the starting concentration, and then diluted by 3-fold gradient (11 gradients in total). A blank well was set up and only the diluent was added. It was incubated at 37° C. for 1 h at 100 μL/well. The liquid in the well was discarded, washed 4 times with a plate washer, and patted dry on a flat paper. Goat anti-human IgG Fc was diluted with 3% skim milk powder at 1:20000, and incubated at 37° C. for 1 h at 100 μL/well. It was washed 6 times with a plate washer, and patted dry on a flat paper. TMB color developing solution was added at 100 μL/well, and wrapped with aluminum foil. Color development was performed at 37° C. in the dark for 8 min. Termination solution 1M HCl was added to terminate the color development reaction at 100 μL/well. Readings were taken at 450 nm on an ELISA reader.

Binder	EC50 (read off the curve) [1]	binding result [2]	EC50 (read off the curve) [3] [nM]	binding result [4]
TB-H (bispecific antibody, human IgG1, kappa, also called antibody TB-H) light: EVQLVESGGGLVQPGGSLRLSCAASGSRLDYYAVAWFRQAPGKEREEVSCITYSGGSTNYAESVKGRFTISRDNSKNTLYLQMNSLRAEDTAVYYCTTEPYGSSCPLSGYDTWGQGTLVTVSSGGGGSGGGGSGGGGSDIVMTQSPATLSVTPGDRVSLSCRASQSISDYLHWYQQKSHESPRLLIKYASQSISGIPSRFSGSGSGSDFTLSINSVEPEDVGVYYCQNGHSFPLTFGAGTKLELKRTVAAPSVFIFPPSDEQLKSGTASVVCLLNNFYPREAKVQWKVDNALQSGNSQESVTEQDSKDSTYSLSSTLTLSKADYEKHKVYACEVTHQGLSSPVTKSFNRGEC heavy: not shown	~0.2 µg/mL	binds	–	–
TB-F (bispecific antibody, human IgG1, kappa, also called antibody TB-F) light: EVQLVQSGAEVKKPGATVKISCKVSGYSITDYLLHWVQQAPGKCLEWMGWIDPEDAKTKYGQKFQSRVTITADTSTDTAYMELSSLRSEDTAVYYCAANSGTGTMDAWGQGTLVTVSSGGGGSGGGGSGGGGSDIVMTQSPATLSVSPGERATLSCKASQNVGSNVDWYQQKPGQSPRVLIYKASIRYTGIPARFSGSGSGTEFTLTISILQSEDFAVYFCMQSKSYPITFGCGTKLEIKGGGGSGGGGSGGGGSDIVMTQSPATLSVTPGDRVSLSCRASQSISDYLHWYQQKSHESPRLLIKYASQSISGIPSRFSGSGSGSDFTLSINSVEPEDVGVYYCQNGHSFPLTFGAGTKLELKRTVAAPSVFIFPPSDEQLKSGTASVVCLLNNFYPREAKVQWKVDNALQSGNSQESVTEQDSKDSTYSLSSTLTLSKADYEKHKVYACEVTHQGLSSPVTKSFNRGEC heavy: not shown	~0.2 µg/mL	binds	–	–
TB-C2 (bispecific antibody, human IgG4 S228P, kappa, also called antibody TB-C2) light: DIVMTQSPATLSVTPGDRVSLSCRASQSISDYLHWYQQKSHESPRLLIKYASQSISGIPSRFSGSGSGSDFTLSINSVEPEDVGVYYCQNGHSFPLTFGAGTKLELKRTVAAPSVFIFPPSDEQLKSGTASVVCLLNNFYPREAKVQWKVDNALQSGNSQESVTEQDSKDSTYSLSSTLTLSKADYEKHKVYACEVTHQGLSSPVTKSFNRGEC heavy: not shown	–	–	~2	binds
TB-D2 (bispecific antibody, human IgG4 S228P, kappa, also called antibody TB-D2) light: DIVMTQSPATLSVTPGDRVSLSCRASQSISDYLHWYQQKSHESPRLLIKYASQSISGIPSRFSGSGSGSDFTLSINSVEPEDVGVYYCQNGHSFPLTFGAGTKLELKRTVAAPSVFIFPPSDEQLKSGTASVVCLLNNFYPREAKVQWKVDNALQSGNSQESVTEQDSKDSTYSLSSTLTLSKADYEKHKVYACEVTHQGLSSPVTKSFNRGEC heavy: not shown	–	–	~1	binds
Positive Control (antibody, V domains shown) VH: QVQLQQSGAELVKPGASVKLSCKASGYTFTNYDINWVRQRPEQGLEWIGWIFPGDGSTQYNEKFKGKATLTTDTSSSTAYMQLSRLTSEDSAVYFCARQTTATWFAYWGQGTLVTVSA VL: DIVMTQSPATLSVTPGDRVSLSCRASQSISDYLHWYQQKSHESPRLLIKYASQSISGIPSRFSGSGSGSDFTLSINSVEPEDVGVYYCQNGHSFPLTFGAGTKLELK	~0.3 nM	–	~0.2	–
TB-G (bispecific antibody, human IgG1, kappa, also called antibody TB-G) light: DIVMTQSPATLSVTPGDRVSLSCRASQSISDYLHWYQQKSHESPRLLIKYASQSISGIPSRFSGSGSGSDFTLSINSVEPEDVGVYYCQNGHSFPLTFGAGTKLELKRTVAAPSVFIFPPSDEQLKSGTASVVCLLNNFYPREAKVQWKVDNALQSGNSQESVTEQDSKDSTYSLSSTLTLSKADYEKHKVYACEVTHQGLSSPVTKSFNRGECGGGGSGGGGSEVQLVESGGGLVQPGGSLRLSCAASGSRLDYYAVAWFRQAPGKEREEVSCITYSGGSTNYAESVKGRFTISRDNSKNTLYLQMNSLRAEDTAVYYCTTEPYGSSCPLSGYDTWGQGTLVTVSS heavy: not shown	–	binds	–	–
